T1: recombinant human CD123-Fc (human, UniProt P26951 19-305)
T1 construct: not shown: Fc part of CD123-Fc
T1 sequence: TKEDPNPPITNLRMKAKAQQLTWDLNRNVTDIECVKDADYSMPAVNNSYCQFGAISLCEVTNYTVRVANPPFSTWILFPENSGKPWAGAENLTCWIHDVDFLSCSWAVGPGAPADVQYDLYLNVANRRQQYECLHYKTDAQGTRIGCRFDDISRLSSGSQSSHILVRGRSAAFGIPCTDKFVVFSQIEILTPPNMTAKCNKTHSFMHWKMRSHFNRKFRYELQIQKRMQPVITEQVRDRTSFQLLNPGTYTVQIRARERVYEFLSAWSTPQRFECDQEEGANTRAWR

B1: SEQ ID NO: 490 (designed binder)
chain: MGSWYDFKYDLAEIKMDLEALGGSEAELAQFEFDIAFFEEELQDYKGKGNPEVEALRKEAAAIRDELQAYRHN
notes: D domain, on phage
B2: SEQ ID NO: 495 (designed binder)
chain: MGSWYDFKEDLADIKWMLEALGGSEAELAEFENVIAYFENDLQEYKGKGNPEVEALRKEAAAIRDELQAYRHN
notes: D domain, on phage
B3: SEQ ID NO: 475 (designed binder)
chain: MGSWSWFKEDLAEIKMELEALGGSEAELAYFEWYIAEFEFQLQHYKGKGNPEVEALRKEAAAIRDELQAYRHN
notes: D domain, on phage
B4: SEQ ID NO: 491 (designed binder)
chain: B3 chain with S5Y, W6I, M16E, W33E, Y34E, E37L, F40M, Q41E, H44W
notes: D domain, on phage
B5: SEQ ID NO: 478 (designed binder)
chain: B3 chain with E13S, M16A, E17V, Y30F, W33S, Y34D, F40Q, Q41E, H44Y
notes: D domain, on phage
B6: SEQ ID NO: 476 (designed binder)
chain: B3 chain with E9Q, E13D, M16I, E17Q, Y30W, Y34D, Q41E, H44D
notes: D domain, on phage
B7: SEQ ID NO: 477 (designed binder)
chain: B3 chain with E13D, M16F, Y30W, W33L, Y34D, E37D, F40Q, Q41A, H44Q
notes: D domain, on phage
B8: SEQ ID NO: 469 (designed binder)
chain: MGSWEEFKEDLAEIKVWLEALGGSEAELAWFEMGIADFEDGLQFYKGKGNPEVEALRKEAAAIRDELQAYRHN
notes: D domain, on phage
B9: SEQ ID NO: 479 (designed binder)
chain: B8 chain with E5W, V16W, W17F, M33H, G34D, D37K, D40F, G41E, F44Y
notes: D domain, on phage
B10: SEQ ID NO: 488 (designed binder)
chain: B8 chain with E5A, E6W, W17F, W30E, M33V, G34S, D40Y, G41E, F44D
notes: D domain, on phage
B11: SEQ ID NO: 470 (designed binder)
chain: B8 chain with E5H, E6W, E13N, V16D, M33D, G34N, D40G, G41D, F44V
notes: D domain, on phage
B12: SEQ ID NO: 481 (designed binder)
chain: MGSWNEFKDDLAMIKMTLEALGGSEAELAWFEHDIAEFEDDLQWYKGKGNPEVEALRKEAAAIRDELQAYRHN
notes: D domain, on phage
B13: SEQ ID NO: 482 (designed binder)
chain: B12 chain with N5T, E6F, M13E, M16W, T17M, H33S, E37Y, D41E
notes: D domain, on phage
B14: SEQ ID NO: 480 (designed binder)
chain: B12 chain with N5E, E6W, D9S, M13S, M16W, T17E, D40E
notes: D domain, on phage
B15: SEQ ID NO: 485 (designed binder)
chain: B12 chain with N5Q, E6Y, M13E, T17V, H33A, E37M, W44I
notes: D domain, on phage
B16: SEQ ID NO: 484 (designed binder)
chain: B12 chain with N5S, E6M, M13E, M16A, T17S, H33D, E37W, W44H
notes: D domain, on phage
B17: SEQ ID NO: 483 (designed binder)
chain: B12 chain with N5S, E6D, M13E, T17I, W30Y, H33N, E37W, W44E
notes: D domain, on phage
B18: SEQ ID NO: 492 (designed binder)
chain: MGSWVLFKEELAYIKFELEALGGSEAELALFENVIAIFESNLQNYKGKGNPEVEALRKEAAAIRDELQAYRHN
notes: D domain, on phage
B19: SEQ ID NO: 471 (designed binder)
chain: MGSWFWFKEDLAFIKEDLEALGGSEAELAWFEDGIAFFEWDLQDYKGKGNPEVEALRKEAAAIRDELQAYRHN
notes: D domain, on phage
B20: SEQ ID NO: 473 (designed binder)
chain: B19 chain with F5H, F13I, E16Q, W30T, D33Q, G34W, F37E, D44E
notes: D domain, on phage
B21: SEQ ID NO: 474 (designed binder)
chain: B19 chain with F5N, F13I, E16M, D33H, G34N, F37G, W40F, D41E, D44G
notes: D domain, on phage
B22: SEQ ID NO: 489 (designed binder)
chain: B19 chain with F5Y, W6E, E9F, F13E, D17Q, W30L, G34D, W40Y, D44N
notes: D domain, on phage
B23: SEQ ID NO: 472 (designed binder)
chain: B19 chain with F5Q, F13E, E16H, G34F, F37Q, W40F, D44W
notes: D domain, on phage
B24: SEQ ID NO: 497 (designed binder)
chain: MGSWYYFKDELADIKWDLEALGGSEAELAWFEMLIAQFELDLQWYKGKGNPEVEALRKEAAAIRDELQAYRHN
notes: D domain, on phage
B25: SEQ ID NO: 498 (designed binder)
chain: B24 chain with Y5M, E10T, D17Y, W30F, M33D, L34W, Q37E, L40D, W44V
notes: D domain, on phage
B26: SEQ ID NO: 499 (designed binder)
chain: B24 chain with Y6Q, D9H, E10D, W16Y, D17G, M33D, L34D, Q37D, W44Y
notes: D domain, on phage
B27: SEQ ID NO: 500 (designed binder)
chain: B2 chain with D6V, E9D, W16Y, E30W, N33W, V34E, Y37N, N40F, E44Y
notes: D domain, on phage
B28: SEQ ID NO: 493 (designed binder)
chain: MGSWQDFKEDLAWIKYELEALGGSEAELAFFEYDIAIFENNLQHYKGKGNPEVEALRKEAAAIRDELQAYRHN
notes: D domain, on phage
B29: SEQ ID NO: 486 (designed binder)
chain: MGSWSFFKDDLAEIKYFLEALGGSEAELAMFEQTIAEFEYDLQDYKGKGNPEVEALRKEAAAIRDELQAYRHN
notes: D domain, on phage
B30: SEQ ID NO: 467 (designed binder)
chain: MGSWEFFKEVLAEIKYDLEALGGSEAELAWFETDIAGFEIDLQVYKGKGNPEVEALRKEAAAIRDELQAYRHN
notes: D domain, on phage
B31: SEQ ID NO: 468 (designed binder)
chain: B8 chain with E5V, E6F, E13T, V16N, W17D, G34M, D40A, G41D, F44Y
notes: D domain, on phage
B32: SEQ ID NO: 487 (designed binder)
chain: B29 chain with S5M, F6E, D9E, D10E, F17I, M30W, T34S, E37D
notes: D domain, on phage
B33: SEQ ID NO: 496 (designed binder)
chain: B24 chain with Y6M, D9E, D17Y, M33D, L34D, Q37G, L40W, W44A
notes: D domain, on phage
B34: SEQ ID NO: 502 (designed binder)
chain: MGSWHWFKIVLADIKDGLEALGGSEAELAYFETTIADFEMDLQHYKGKGNPEVEALRKEAAAIRDELQAYRHN
notes: D domain, on phage
B35: SEQ ID NO: 503 (designed binder)
chain: B34 chain with Q43H
notes: D domain, on phage
B36: SEQ ID NO: 494 (designed binder)
chain: MGSWDHFKNDLAWIKKHLEALGGSEAELAEFEAVIAYFELYLQGYKGKGNPEVEALRKEAAAIRDELQAYRHN
notes: D domain, on phage
B37: SEQ ID NO: 501 (designed binder)
chain: MGSWNFFKYDLADIMAYLEALGGSEAELAFFEDEIANFEHDLQKYKGKGNPEVEALRKEAAAIRDELQAYRHN
notes: D domain, on phage

Numbering of substitutions follows the chain as printed.

The experiment has as its target T1, recombinant human CD123-Fc. Description: phage ELISA, captured CD123-Fc. An outline of the steps: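 Readout is the clone-averaged A450 ratio of target-Fc over IgG1-Fc wells, detected with HRP-conjugated anti-M13. Each Fc protein (5 nM) was captured on goat anti-human IgG1-Fc-coated plates. Phage were rescued with VCSM13 from BCMA-panning colonies and added at 5× dilution.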
In the case of B1, the ELISA_avg is 3.2 ratio A450 target/IgG1-Fc.

Turning to B2, the ELISA_avg worked out at 8 ratio A450 target/IgG1-Fc.

For B3, the ELISA_avg worked out at 4.8 ratio A450 target/IgG1-Fc. With B4 the figure was 11.1 ratio A450 target/IgG1-Fc; with B5, 6.9 ratio A450 target/IgG1-Fc. Regarding B6, the ELISA_avg turned out to be 4 ratio A450 target/IgG1-Fc.

Regarding B7, the ELISA_avg came out at 6.8 ratio A450 target/IgG1-Fc. As to B8, the ELISA_avg was 4.3 ratio A450 target/IgG1-Fc.

In the case of B9, the ELISA_avg stood at 5.1 ratio A450 target/IgG1-Fc. Under B10 stands 3.5 ratio A450 target/IgG1-Fc; under B11, 3.3 ratio A450 target/IgG1-Fc.

For B12, the ELISA_avg worked out at 3.5 ratio A450 target/IgG1-Fc. For the molecule B13, the ELISA_avg came out at 3.3 ratio A450 target/IgG1-Fc. As to B14, the ELISA_avg is 5.7 ratio A450 target/IgG1-Fc. Under B15 stands 3.6 ratio A450 target/IgG1-Fc; under B16, 5.2 ratio A450 target/IgG1-Fc; under B17, 4.7 ratio A450 target/IgG1-Fc. On to B18, for which the ELISA_avg turned out to be 3.5 ratio A450 target/IgG1-Fc.

Consider B19, for which the ELISA_avg is 13.7 ratio A450 target/IgG1-Fc. As for B20, the ELISA_avg was 5.5 ratio A450 target/IgG1-Fc. With B21 the figure was 3.1 ratio A450 target/IgG1-Fc; with B22, 4.6 ratio A450 target/IgG1-Fc; with B23, 3.8 ratio A450 target/IgG1-Fc. Under B24 stands 4 ratio A450 target/IgG1-Fc. With B25 the figure was 3.1 ratio A450 target/IgG1-Fc; with B26, 4.7 ratio A450 target/IgG1-Fc. B27: the ELISA_avg was 3.8 ratio A450 target/IgG1-Fc.

Turning to B28, the ELISA_avg came out at 3.2 ratio A450 target/IgG1-Fc. With B29 the figure was 10.1 ratio A450 target/IgG1-Fc; with B30, 8.2 ratio A450 target/IgG1-Fc. Under B31 stands 3.1 ratio A450 target/IgG1-Fc; under B32, 5 ratio A450 target/IgG1-Fc; under B33, 7 ratio A450 target/IgG1-Fc. Turning to B34, the ELISA_avg was found to be 4.3 ratio A450 target/IgG1-Fc.

As to B35, the ELISA_avg worked out at 3.5 ratio A450 target/IgG1-Fc.

On to B36, for which the ELISA_avg was found to be 3.3 ratio A450 target/IgG1-Fc.

With B37, the ELISA_avg was 4.4 ratio A450 target/IgG1-Fc.

The record behind these values is patent US20230125550A1 (ARCELLX, published 2023).
